Data published in publication PMC7374751.

How the values were obtained:
[1] = target: full length MMP-1 (human); test: enzyme activity of pre-formed complexes against synthetic substrates; 10 nM [35S]TIMP-3 incubated with an equimolar concentration of metalloproteinase for 1 h at 37 °C; complex formation and stability over 24 h checked by activity
[2] = target: ADAMTS-5 (of the inhibition assays) (UniProt Q9UNA0); test: enzyme inhibition kinetics (fluorogenic peptide substrates); apparent Ki; enzyme pre-incubated with TIMP-3 (0.5-100 nM) 1 h at 37 °C, equilibrium rate of substrate hydrolysis; TNC buffer (50 mM Tris-HCl pH 7.5, 150 mM NaCl, 10 mM CaCl2, 0.05% Brij-35, 0.02% NaN3), 37 °C; tight-binding equation

Sequence of full length MMP-1 (human) (P03956 100-469): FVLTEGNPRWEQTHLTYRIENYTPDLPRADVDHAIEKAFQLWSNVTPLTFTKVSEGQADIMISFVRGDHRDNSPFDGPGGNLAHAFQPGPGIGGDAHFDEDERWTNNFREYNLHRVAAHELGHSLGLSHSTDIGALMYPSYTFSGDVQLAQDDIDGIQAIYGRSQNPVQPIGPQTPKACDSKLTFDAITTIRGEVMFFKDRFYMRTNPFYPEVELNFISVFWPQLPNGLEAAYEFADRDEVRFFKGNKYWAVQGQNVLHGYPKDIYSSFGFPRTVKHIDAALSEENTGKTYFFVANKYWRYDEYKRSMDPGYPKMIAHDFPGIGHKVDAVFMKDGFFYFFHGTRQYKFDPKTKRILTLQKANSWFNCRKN

stoichiometry N [1]: 1 | Ki [2]: 1.91 nM
B1: FLAG-tagged TIMP-3 (natural protein)
chain: CTCSPSHPQDAFCNSDIVIRAKVVGKKLVKEGPFGTLVYTIKQMKMYRGFTKMPHVQYIHTEASESLCGLKLEVNKYQYLLTGRVYDGKMYTGLCNFVERWDQLTLSQRKGLNYRYHLGCNCKIKSCYYLPCFVTSKNECLWTDMLSNFGYPGYQSKHYACIRQKGGYCSWYRGWAPPDKSIINATDP
